B1: SEQ ID NO: 37: Mycobacterium massiliense carboxylate reductase (protein)
chain: MTNETNPQQEQLSRRIESLRESDPQFRAAQPDPAVAEQVLRPGLHLSEAIAALMTGYAERPALGERARELVIDQDGRTTLRLLPRFDTTTYGELWSRTTSVAAAWHHDATHPVKAGDLVATLGFTSIDYTVLDLAIMILGGVAVPLQTSAPASQWTTILAEAEPNTLAVSIELIGAAMESVRATPSIKQVVVFDYTPEVDDQREAFEAASTQLAGTGIALETLDAVIARGAALPAAPLYAPSAGDDPLALLIYTSGSTGAPKGAMHSENIVRRWWIREDVMAGTENLPMIGLNFMPMSHIMGRGTLTSTLSTGGTGYFAASSDMSTLFEDMELIRPTALALVPRVCDMVFQRFQTEVDRRLASGDTASAEAVAAEVKADIRDNLFGGRVSAVMVGSAPLSEELGEFIESCFELNLTDGYGSTEAGMVFRDGIVQRPPVIDYKLVDVPELGYFSTDKPHPRGELLLKTDGMFLGYYKRPEVTASVFDADGFYMTGDIVAELAHDNIEIIDRRNNVLKLSQGEFVAVATLEAEYANSPVVHQIYVYGSSERSYLLAVVVPTPEAVAAAKGDAAALKTTIADSLQDIAKEIQLQSYEVPRDFIIEPQPFTQGNGLLTGIAKLARPNLKAHYGPRLEQMYAEIAEQQAAELRALHGVDPDKPALETVLKAAQALLGVSSAELAADAHFTDLGGDSLSALSFSDLLRDIFAVEVPVGVIVSAANDLGGVAKFVDEQRHSGGTRPTAETVHGAGHTEIRAADLTLDKFIDEATLHAAPSLPKAAGIPHTVLLTGSNGYLGHYLALEWLERLDKTDGKLIVIVRGKNAEAAYGRLEEAFDTGDTELLAHFRSLADKHLEVLAGDIGDPNLGLDADTWQRLADTVDVIVHPAALVNHVLPYNQLFGPNVVGTAEIIKLAITTKIKPVTYLSTVAVAAYVDPTTFDEESDIRLISAVRPIDDGYANGYGNAKWAGEVLLREAHDLCGLPVAVFRSDMILAHSRYTGQLNVPDQFTRLILSLIATGIAPGSFYQAQTTGERPLAHYDGLPGDFTAEAITTLGTQVPEGSEGFVTYDCVNPHADGISLDNFVDWLIEAGYPIARIDNYTEWFTRFDTAIRGLSEKQKQHSLLPLLHAFEQPSAAENHGVVPAKRFQHAVQAAGIGPVGQDGTTDIPHLSRRLIVKYAKDLEQLGLL
modifications: Mycobacterium abscessus subsp. bolletii 2B-0307
notes: Mycobacterium massiliense carboxylate reductase
B2: SEQ ID NO: 29: Mycobacterium smegmatis carboxylate reductase (protein)
chain: MTSDVHDATDGVTETALDDEQSTRRIAELYATDPEFAAAAPLPAVVDAAHKPGLRLAEILQTLFTGYGDRPALGYRARELATDEGGRTVTRLLPRFDTLTYAQVWSRVQAVAAALRHNFAQPIYPGDAVATIGFASPDYLTLDLVCAYLGLVSVPLQHNAPVSRLAPILAEVEPRILTVSAEYLDLAVESVRDVNSVSQLVVFDHHPEVDDHRDALARAREQLAGKGIAVTTLDAIADEGAGLPAEPIYTADHDQRLAMILYTSGSTGAPKGAMYTEAMVARLWTMSFITGDPTPVINVNFMPLNHLGGRIPISTAVQNGGTSYFVPESDMSTLFEDLALVRPTELGLVPRVADMLYQHHLATVDRLVTQGADELTAEKQAGAELREQVLGGRVITGFVSTAPLAAEMRAFLDITLGAHIVDGYGLTETGAVTRDGVIVRPPVIDYKLIDVPELGYFSTDKPYPRGELLVRSQTLTPGYYKRPEVTASVFDRDGYYHTGDVMAETAPDHLVYVDRRNNVLKLAQGEFVAVANLEAVFSGAALVRQIFVYGNSERSFLLAVVVPTPEALEQYDPAALKAALADSLQRTARDAELQSYEVPADFIVETEPFSAANGLLSGVGKLLRPNLKDRYGQRLEQMYADIAATQANQLRELRRAAATQPVIDTLTQAAATILGTGSEVASDAHFTDLGGDSLSALTLSNLLSDFFGFEVPVGTIVNPATNLAQLAQHIEAQRTAGDRRPSFTTVHGADATEIRASELTLDKFIDAETLRAAPGLPKVTTEPRTVLLSGANGWLGRFLTLQWLERLAPVGGTLITIVRGRDDAAARARLTQAYDTDPELSRRFAELADRHLRVVAGDIGDPNLGLTPEIWHRLAAEVDLVVHPAALVNHVLPYRQLFGPNVVGTAEVIKLALTERIKPVTYLSTVSVAMGIPDFEEDGDIRTVSPVRPLDGGYANGYGNSKWAGEVLLREAHDLCGLPVATFRSDMILAHPRYRGQVNVPDMFTRLLLSLLITGVAPRSFYIGDGERPRAHYPGLTVDFVAEAVTTLGAQQREGYVSYDVMNPHDDGISLDVFVDWLIRAGHPIDRVDDYDDWVRRFETALTALPEKRRAQTVLPLLHAFRAPQAPLRGAPEPTEVFHAAVRTAKVGPGDIPHLDEALIDKYIRDLREFGLI
modifications: Mycobacterium smegmatis (strain ATCC 700084 / mc(2)155)
notes: Mycobacterium smegmatis carboxylate reductase

What was measured:
[1] = Carboxylate reductase activity, 7-hydroxyheptanoate to 7-hydroxyheptanal, NADPH consumption at 340 nm; format: biochemical; conditions: enhanced by gene product of sfp, 20 min, against empty vector control, FIG. 44
Method: A sequence encoding a His-tag was added to the genes from Mycobacterium marinum, Mycobacterium smegmatis, Segniliparus rugosus, Mycobacterium smegmatis, Mycobacterium massiliense, and Segniliparus rotundus that encode the carboxylate reductases of SEQ ID NOs: 25 (GenBank Accession No. ACC40567.1), 27 (GenBank Accession No. ABK75684.1), 29 (GenBank Accession No. ABK71854.1), 31 (GenBank Accession No. EFV11917.1), 37 (GenBank Accession No. EIV11143.1), and 38 (GenBank Accession No. ADG98140.1) such that N-terminal HIS tagged carboxylate reductases could be produced. Each of the modified genes was cloned into a pET Duet expression vector alongside a sfp gene encoding a His-tagged phosphopantetheine transferase from Bacillus subtilis, both under control of the T7 promoter.
Each expression vector was transformed into a BL21[DE3] E. coli host and the resulting recombinant E. coli strains were cultivated at 37° C. in a 250 mL shake flask culture containing 50 mL LB media and antibiotic selection pressure, with shaking at 230 rpm. Each culture was induced overnight at 37° C. using an auto-induction media.
The pellet from each induced shake flask culture was harvested via centrifugation. Each pellet was resuspended and lysed via sonication. The cell debris was separated from the supernatant via centrifugation. The carboxylate reductases and phosphopantetheine transferase were purified from the supernatant using Ni-affinity chromatography, diluted 10-fold into 50 mM HEPES buffer (pH=7.5) and concentrated via ultrafiltration.
Enzyme activity (i.e., 7-hydroxyheptanoate to 7-hydroxyheptanal) assays were performed in triplicate in a buffer composed of a final concentration of 50 mM HEPES buffer (pH=7.5), 2 mM […], 10 mM MgCl2, 1 mM ATP, and 1 mM NADPH. Each enzyme activity assay reaction was initiated by adding purified carboxylate reductase and phosphopantetheine transferase or the empty vector control to the assay buffer containing the 7-hydroxyheptanoate and then incubated at room temperature for 20 min. The consumption of NADPH was monitored by absorbance at 340 nm.

[2] = Carboxylate reductase activity, N7-acetyl-7-aminoheptanoate to N7-acetyl-7-aminoheptanal, NADPH consumption at 340 nm; format: biochemical; conditions: enhanced by gene product of sfp, 2 mM substrate, 20 min, against empty vector control, FIG. 45
Method: The activity of each of the N-terminal His-tagged carboxylate reductases of SEQ ID NOs: 29 (GenBank Accession No. ABK71854.1), 37 (Genbank Accession No. EIV11143.1), and 38 (GenBank Accession No. ADG98140.1) (see Examples 4) for converting N7-acetyl-7-aminoheptanoate to N7-acetyl-7-aminoheptanal was assayed in triplicate in a buffer composed of a final concentration of 50 mM HEPES buffer (pH=7.5), 2 mM N7-acetyl-7-aminoheptanoate, 10 mM MgCl2, 1 mM ATP, and 1 mM NADPH. The assays were initiated by adding purified carboxylate reductase and phosphopantetheine transferase or the empty vector control to the assay buffer containing the N7-acetyl-7-aminoheptanoate then incubated at room temperature for 20 min. The consumption of NADPH was monitored by absorbance at 340 nm.

Molecule | acceptance of 7-hydroxyheptanoate as substrate, forming 7-hydroxyheptanal [1] | acceptance of N7-acetyl-7-aminoheptanoate as substrate, forming N7-acetyl-7-aminoheptanal [2]
B1 | accepted 7-hydroxyheptanoate as substrate | accepted N7-acetyl-7-aminoheptanoate as substrate
B2 | accepted 7-hydroxyheptanoate as substrate | accepted N7-acetyl-7-aminoheptanoate as substrate

From patent US10801046B2, “Methods and materials for biosynthesizing multifunctional, multivariate molecules via carbon chain modification” (INVISTA NORTH AMERICA S.A.R.L., priority 2016, dated 2020)
